Experimental data as given in the supplement of paper PMC10567573.

B1: NP_002788.1 (parent)
chain: DGWIRVSSDNVADLHEKYSGSTP

Variants of: B1
Test: protein stability index of a GFP-peptide fusion (GPS, HEK-293T) (PSI 1-6); higher = more stable
Conditions: c terminus: native
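Further: lentivirally expressed fusion library, cells FACS-sorted into six equal-sized GFP/DsRed ratio bins, PSI computed from sequencing read fractions per bin weighted by bin number.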

Row | Variant | protein stability index
1 | G2D | 2.9
2 | G2P | 2.71
3 | G2H | 2.51
4 | D13T | 2.47
5 | D13F | 2.62
6 | D13I | 2.53
7 | D13Q | 2.47
8 | D13Y | 2.54
9 | D13S | 2.52
10 | D13P | 2.3
11 | D13R | 2.04
12 | H15L | 2.66
13 | H15K | 2.77
14 | H15E | 2.98
15 | H15G | 2.71
16 | H15C | 2.73
17 | H15Y | 2.42
18 | H15P | 3.06
19 | H15A | 2.51
20 | H15M | 2.64
21 | H15S | 2.47
22 | D9E | 2.34
23 | D9Q | 2.41
24 | D9R | 2.3

Row | Variant | protein stability index
25 | D9T | 2.43
26 | D9V | 2.54
27 | D9S | 2.74
28 | S8M | 2.41
29 | S8T | 2.87
30 | S8I | 2.32
31 | S8Y | 2.14
32 | S8L | 2.28
33 | S8A | 2.31
34 | S8H | 2.57
35 | S8C | 2.13
36 | S8K | 2.68
37 | R5W | 2.41
38 | R5F | 2.52
39 | R5D | 3.01
40 | R5H | 2.62
41 | R5V | 2.42
42 | R5N | 2.63
43 | R5T | 2.54
44 | R5Q | 2.52
45 | R5P | 4.15
46 | R5L | 2.5
47 | R5M | 2.64
48 | P23G | 4.43

Row | Variant | protein stability index
49 | P23E | 5.11
50 | P23D | 5.08
51 | P23W | 3.31
52 | P23Q | 4.78
53 | P23M | 3.41
54 | V6W | 3.04
55 | V6A | 2.27
56 | V6Q | 2.41
57 | V6D | 4.78
58 | V6G | 4.34
59 | V6M | 2.31
60 | S7G | 3.63
61 | S7L | 2.26
62 | S7N | 4.02
63 | S7E | 3.83
64 | S7W | 2.64
65 | S7K | 4.58
66 | S7Y | 2.39
67 | D1W | 2.8
68 | D1L | 2.2
69 | D1Q | 2.36
70 | D1Y | 2.07
71 | D1H | 2.51
72 | D1V | 2.36

Row | Variant | protein stability index
73 | D1N | 2.33
74 | D1S | 2.53
75 | D1E | 2.54
76 | N10S | 2.17
77 | N10D | 2.54
78 | N10H | 2.22
79 | N10A | 1.84
80 | N10L | 2.69
81 | L14M | 2.65
82 | L14P | 2.57
83 | L14R | 2.41
84 | L14Q | 2.89
85 | L14D | 2.89
86 | L14E | 2.74
87 | L14G | 3.47
88 | L14S | 3.01
89 | G20D | 4.65
90 | G20E | 4.64
91 | G20R | 4.17
92 | G20N | 3.92
93 | G20M | 3.63
94 | G20W | 2.9
95 | G20T | 4.17
96 | S21V | 1.83

Row | Variant | protein stability index
97 | S21F | 2.16
98 | S21C | 1.98
99 | S21W | 3.02
100 | S21D | 4.54
101 | S21A | 2.21
102 | S21R | 2.16
103 | S21P | 3.5
104 | S21T | 2.19
105 | S21I | 1.95
106 | T22H | 3.06
107 | T22C | 2.36
108 | T22K | 4.96
109 | T22N | 4.05
110 | T22V | 2.46
111 | T22A | 3.29
112 | T22E | 2.64
113 | I4M | 3.39
114 | I4H | 4.58
115 | I4D | 4.94
116 | I4C | 3.19
117 | I4R | 3.53
118 | V11K | 1.78
119 | V11M | 2.64
120 | V11Y | 2.67

Row | Variant | protein stability index
121 | V11D | 2.54
122 | V11C | 2.41
123 | V11T | 2.48
124 | V11H | 2.29
125 | V11R | 1.87
126 | W3M | 5.35
127 | W3G | 5.28
128 | W3E | 5.43
129 | W3I | 5.33
130 | W3D | 5.23
131 | W3Y | 5.02
132 | W3C | 5.49
133 | W3L | 5.26
134 | S19P | 2.34
135 | S19F | 2.82
136 | S19M | 2.28
137 | S19Y | 2.47
138 | S19V | 2.94
139 | S19D | 3.5
140 | Y18D | 3.64
141 | Y18H | 2.68
142 | Y18F | 2.44
143 | Y18E | 3.23
144 | Y18C | 3.09

Row | Variant | protein stability index
145 | Y18I | 3.11
146 | A12M | 2.3
147 | A12N | 2.48
148 | A12Q | 2.25
149 | A12S | 2.24
150 | A12G | 2.68
151 | A12C | 2.57
152 | A12W | 2.46
153 | E16N | 2.95
154 | E16K | 3.12
155 | E16A | 2.5
156 | E16W | 2.65
157 | E16Q | 2.87
158 | K17D | 3.58
159 | K17N | 3.33
160 | K17Q | 3.16
161 | K17T | 3.27
162 | K17C | 3.04
163 | K17I | 3.12
164 | K17V | 3.18
165 | K17M | 3.19
166 | K17F | 3.36
167 | K17A | 3.52
